Test results as given in US9063157B2, “Method for evaluating skin condition using squamous cell carcinoma antigen as marker” (Shiseido Company, Ltd., priority 2005, dated 2015).
“Also recorded” adds a separate entry of the source. Like-named read-outs stand apart in the source and are kept apart here. Blank lines part the entries; values can stand above or below the molecule they belong to. * marks the point of attachment. Cbz = O=C(OCc1ccccc1)*; CH2F = FC*

Columns and labels:
purified caspase-14 = target: T1, purified caspase-14 (Homo sapiens, UniProt P31944); experiment: Caspase-14 activity inhibitor assay with WEHD-MCA substrate; assay type: biochemical
T1 construct: human caspase-14 was purified as a heterodimer comprising a large subunit (17 KDa) and a small subunit (11 KDa); from tissue; host or cells: human heel stratum corneum (cornified cells)
T1 sequence (P31944 6-146 limits assumed): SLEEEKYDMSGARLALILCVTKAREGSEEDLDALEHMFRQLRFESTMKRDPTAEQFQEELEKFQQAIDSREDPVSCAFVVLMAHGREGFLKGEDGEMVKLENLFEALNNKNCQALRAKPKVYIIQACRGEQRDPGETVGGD
T1 sequence (P31944 153-242 limits assumed): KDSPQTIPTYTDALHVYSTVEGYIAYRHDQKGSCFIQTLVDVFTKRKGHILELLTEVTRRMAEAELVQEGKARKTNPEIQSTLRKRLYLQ
Experimental: Currently, 15 types of human caspases are known, but caspase-14 was incubated together with various peptide inhibitors for caspases (YVAD (SEQ ID NO:3), VDVAD (SEQ ID NO:4), DEVD (SEQ ID NO:5), VEID (SEQ ID NO:6), IETD (SEQ ID NO:7), LEHD (SEQ ID NO:8), DNLD (SEQ ID NO:9)), class-specific inhibitors for cysteine proteinases (IAA) or serine proteinases (AEBSF). WEHD-MCA (SEQ ID NO:10) was used as substrate in the presence of 1.3 M sodium citrate and 5 mM DTT, and the residual enzyme activity was measured. The tested enzyme concentrations were 5, 2.5 and 1.25 μM. The values were represented as mean values for multiple assays.
Caspase-14 activity was assayed by the method described in Mikolajczyk J. et al., Biochemistry 43, 10560-9 (2004), with some modifications, using Ac-WEHD-MCA as substrate. Briefly, an assay mixture was prepared from 45 μL of 0.1 M HEPES buffering solution (pH 7.5), 0.06 M NaCl, 0.01% CHAPS, 5 mM DTT, 1.3 M sodium citrate and 10 μM WEHD-MCA (all final concentrations). After adding enzyme sample (5 μl) to the mixture, it was incubated for 10-30 minutes. The reaction was suspended by addition of 150 μl of 0.1 M monochloroacetic acid, and Fluoroskan Ascent FL (Thermo Electron Co., Wolsam, Mass.) was used for measurement with a 355 nm excitation wavelength and a 460 nm luminous wavelength. For the inhibitor assay, caspase-14 and peptide inhibitor were incubated at room temperature for 15 minutes in assay buffer, and 5 μl of 100 μM WEHD-MCA was added to start the assay.
Human cornified cells (about 14 g) scraped from healthy human heel were extracted with 0.1 M Tris-HC1 (pH 8.0) containing 0.14 M NaCI, using a glass homogenizer. After centrifuging at 15,000g for 60 minutes, the supernatant was collected. It was concentrated with Amicon Ultra (Millipore, MA) and desalted with a Fast Desalting Column HR10/10 (Amersham Biosciences), and then the crude product was coated onto a HiPrep 16/10 Q XL column. The column was cleaned with 20 mM Tris-HCI (pH 8.0) and eluted with a 0-1 M linear NaCl gradient. The fraction was tracked by Western blotting using caspase-14antibody (H-99) (Santa Cruz Biotechnology, CA) and h14D^146 antibody. Each fraction was subjected to assay of hydrolytic activity on Ac Trp-Glu-His-Asp-methyl-coumarinamide (WEND-MCA) (Peptide Institute, Inc., Osaka, Japan). The positive fraction was applied to a Mono Q column equilibrated with the same buffering solution, and eluted with a NaCl gradient of up to 1M. The caspase-14 fraction was further separated by Mono S positive cation exchange chromatography. The column was equilibrated with 20mM acetic acid buffer (pH 4.5) and eluted with a 0-1 M NaCl gradient. The positive fraction was concentrated and applied to a chromatofocusing Mono P column equilibrated with 25 mM ethanolamine (pH 8.3). Next, elution was performed while forming a pH gradient from pH 8 to 5 using 46ml of Polybuffer (pH 5.0). Caspase-14 was subjected to final purification using Superdex 75 gel chromatography. The protein concentration was determined using a BioRad Protein Assay Kit (BioRad Lab, Hercules, CA).

skin equivalent models = skin equivalent models (Weil et al., 1999); cited from earlier work
caspases 1-10 = experiment: Recombinant active caspases incubated with SCCA-1; assay type: biochemical
Text: Benzyloxycarbonyl (Z)-YVAD-FMK, Z-YVAD-FMK, Z VDVAD-FMK, Z-DEVD-FMK, Z-VEID-FMK, Z-IETD-FMK, Z-LEHD-FMK, and Z-VAD-FMK were purchased from BioVision (Mountain View, CA). Recombinant caspases 1-10 were obtained from BIOMOL Research Labs, Inc. (Plymouth Meeting, PA).
Although SCCA-1 belongs to the serpin superfamily, it inhibits cysteine proteinases such as papain and cathepsin L (Takeda A. et al., Biol. Chem. 383, 1231-6 (2002)). […] Kosmotropic conditions were used for caspase-14. […] The enzyme activity was not recovered even with extended incubation.

caspase-14 = target: T2, caspase-14 (Homo sapiens, UniProt P31944); experiment: ICAD cleavage by purified caspase-14, Western blotting; assay type: biochemical; settings: for inhibition of ICAD decomposition by caspase-14: prolonged incubation (up to 16 hours), kosmotropic salt
T2 construct: human caspase-14 was purified as a heterodimer comprising a large subunit (17 KDa) and a small subunit (11 KDa); from tissue; host or cells: human heel stratum corneum (cornified cells)
T2 sequence (P31944 6-146 limits assumed): T1 sequence (P31944 6-146 limits assumed)
T2 sequence (P31944 153-242 limits assumed): T1 sequence (P31944 153-242 limits assumed)
Text: Identified were 33 KDa and 27 KDa cleavage products. […] ICAD decomposition was observed only in the presence of a kosmotropic salt.
For Western blotting and immunohistochemical analysis of ICAD, anti-ICAD IgG (FL331, Santa Cruz Biotechnology) and DFF45/ICAD Ab-2 (NeoMarkers, Fremont, Calif.) were used.
The protein was separated by SDS-polyacrylamide gel electrophoresis with a 5-20% gradient gel. After electrophoresis, the protein was transferred onto a polyvinylidene difluoride membrane (Immobilon-P, Millipore, Bedford, Mass.) and incubated together with anti-caspase-14 antibody including H-99, h14D^146 or C20. Peroxidase-labeled anti-rabbit IgG (Sigma) or anti-goat IgG was used as secondary antibody and ECL-Plus (Amersham) was used as immunoreactive protein for visualization by chemiluminescence.
The present inventors tested the effect of caspase-14 on ICAD, in the course of searching for natural substrates of caspase-14, because disappearance of nuclei is a very important event for final differentiation.

caspase-3 = target: T3, caspase-3 (Homo sapiens, UniProt P42574); experiment: Caspase-3 activity with synthetic substrate DEVD-MCA or natural substrate ICAD; assay type: biochemical
T3 construct: When recombinant active caspases were incubated together with SCCA-1; purchased BIOMOL Research Labs, Inc. (Plymouth Meeting, PA)
T3 sequence (P42574 29-175 limits assumed): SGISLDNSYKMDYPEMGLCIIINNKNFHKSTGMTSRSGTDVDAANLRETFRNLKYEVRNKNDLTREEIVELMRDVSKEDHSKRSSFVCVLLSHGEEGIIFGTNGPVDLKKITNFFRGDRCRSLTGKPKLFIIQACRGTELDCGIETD
T3 sequence (P42574 176-277 limits assumed): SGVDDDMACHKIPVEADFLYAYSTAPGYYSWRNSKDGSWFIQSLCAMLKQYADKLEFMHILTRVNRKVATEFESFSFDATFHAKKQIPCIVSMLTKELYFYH
Text: The enzymatic properties of purified caspase-14 were highly unique. Purified caspase-14exhibited relatively wide inhibitor sensitivity with respect to known caspase inhibitors. […] It was shown, for the first time, that SCCA-1 is an endogenous inhibitor of caspase-14. The property most specific to SCCA-1 is its high specificity for caspase-14. The other members, caspases 1-10, had never been reported as being affected by SCCA-1. […] This behavior is in contrast to Crm A. […] is also known to suppress several caspases including caspase-1 and caspase-8 (Gagliardini V. et al., Science 263: 826-8 (1994)). XIAP is known to inhibit caspase-3, -7, and -9 (Srinivasula S.M. et al., Nature 410: 112-6 (2001)). Since the anti-apoptotic protein p35 inhibits caspase-1, -3, -6, -7, -8, and -10, it is believed to have a wider spectrum.

[1] = WEHD-MCA substrate, 1.3 M sodium citrate, 5 mM DTT, tested concentrations 5, 2.5 and 1.25 μM

Molecule: NCCc1ccc(S(=O)(=O)F)cc1 [AEBSF, 4-(2-aminoethyl)benzenesulfonyl fluoride]
inhibiting effect against caspase-14 activity (residual enzyme activity) (purified caspase-14; [1]): no significant inhibiting effect

Molecule: O=C(O)CI [IAA, iodoacetic acid]
inhibiting effect against caspase-14 activity (residual enzyme activity) (purified caspase-14): no significant inhibiting effect

Molecule: Benzyloxycarbonyl (Z)-YVAD-FMK
inhibiting effect against caspase-14 activity (residual enzyme activity) (purified caspase-14; [1]): most powerful inhibiting effect; also recorded: strongest inhibition

inhibiting effect against caspase-14 activity (residual enzyme activity) (purified caspase-14; [1]): exhibited sensitivity
Molecule: DEVD-FMK: caspase-3 inhibitor

inhibiting effect against caspase-14 activity (residual enzyme activity) (purified caspase-14; [1]): exhibited sensitivity
Molecule: IETD-FMK: caspase-8 inhibitor (Cbz-IETD-CH2F; SMILES CC[C@H](C)[C@H](NC(=O)OCc1ccccc1)C(=O)N[C@@H](CCC(=O)O)C(=O)N[C@H](C(=O)N[C@@H](CC(=O)O)C(=O)CF)[C@@H](C)O)

inhibiting effect against caspase-14 activity (residual enzyme activity) (purified caspase-14; [1]): exhibited sensitivity
Molecule: LEHD-FMK: caspase-9 inhibitor (Cbz-LEHD-CH2F; SMILES CC(C)C[C@H](NC(=O)OCc1ccccc1)C(=O)N[C@@H](CCC(=O)O)C(=O)N[C@@H](Cc1c[nH]cn1)C(=O)N[C@@H](CC(=O)O)C(=O)CF)

Molecule: VAD-FMK: pan-caspase inhibitor (Cbz-Val-Ala-Asp-CH2F)
inhibiting effect against caspase-14 activity (residual enzyme activity) (purified caspase-14; [1]): inhibited caspase-14 activity at about the same level as VAD-FMK; also recorded: one of the most powerful caspase-14 inhibitors | inhibition of disappearance of nuclei (skin equivalent models): inhibited disappearance of nuclei

inhibiting effect against caspase-14 activity (residual enzyme activity) (purified caspase-14; [1]): exhibited sensitivity
Molecule: VDVAD-FMK: caspase-2 inhibitor (Cbz-VDVAD-CH2F; SMILES CC(C)[C@H](NC(=O)OCc1ccccc1)C(=O)N[C@@H](CC(=O)O)C(=O)N[C@H](C(=O)N[C@@H](C)C(=O)N[C@@H](CC(=O)O)C(=O)CF)C(C)C)

inhibiting effect against caspase-14 activity (residual enzyme activity) (purified caspase-14; [1]): virtually no effect
Molecule: VEID-FMK: peptide inhibitor for caspases (Cbz-VEID-CH2F; SMILES CC[C@H](C)[C@H](NC(=O)[C@H](CCC(=O)O)NC(=O)[C@@H](NC(=O)OCc1ccccc1)C(C)C)C(=O)N[C@@H](CC(=O)O)C(=O)CF)

inhibition of ICAD cleavage by caspase-14 (caspase-14; 10 μM SCCA-1, in presence of kosmotropic salt): completely inhibited | inhibition of ICAD decomposition by caspase-14 (caspase-14): inhibition of ICAD decomposition | inhibition of caspase-3 activity (caspase-3; natural substrate ICAD): did not inhibit | inhibition of caspase-3 activity (caspase-3; synthetic substrate DEVD-MCA): did not inhibit
B1: SCCA-1: recombinant squamous cell carcinoma antigen 1, an ov-serpin family papain-like cysteine protease inhibitor (protein)
chain: MNSLSEANTKFMFDLFQQFRKSKENNIFYSPISITSALGMVLLGAKDNTAQQIKKVLHFDQVTENTTGKAATYHVDRSGNVHHQFQKLLTEFNKSTDAYELKIANKLFGEKTYLFLQEYLDAIKKFYQTSVESVDFANAPEESRKKINSWVESQTNEKIKNLIPEGNIGSNTTLVLVNAIYFKGQWEKKFNKEDTKEEKFWPNKNTYKSIQMMRQYTSFHFASLEDVQAKVLEIPYKGKDLSMIVLLPNEIDGLQKLEEKLTAEKLMEWTSLQNMRETRVDLHLPRFKVEESYDLKDTLRTMGMVDIFNGDADLSGMTGSRGLVLSGVLHKAFVEVTEEGAEAAAATAVVGFGSSPTSTNEEFHCNHPFLFFIRQNKTNSILFYGRFSSP
inhibiting effect against caspase-14 activity (residual enzyme activity) (purified caspase-14; [1]): inhibited caspase-14 activity against WEHD-MCA in a dose-dependent manner | effect on enzyme activity of caspases 1-10 (caspases 1-10): none of the caspase members (1-10) were affected in their enzyme activity | inhibition of ICAD decomposition by caspase-14 (caspase-14; listed as SCCA 1): inhibited ICAD decomposition by caspase-14
